Reference: patent publication US20100041873A1

Biological target: Human IL-21 receptor on Baf3/KZ134/huIL-21R cells (human) (UniProt Q9HBE5)
Assay: cell-based or functional assay

Sequence of Human IL-21 receptor on Baf3/KZ134/huIL-21R cells (human) (Q9HBE5 20-538): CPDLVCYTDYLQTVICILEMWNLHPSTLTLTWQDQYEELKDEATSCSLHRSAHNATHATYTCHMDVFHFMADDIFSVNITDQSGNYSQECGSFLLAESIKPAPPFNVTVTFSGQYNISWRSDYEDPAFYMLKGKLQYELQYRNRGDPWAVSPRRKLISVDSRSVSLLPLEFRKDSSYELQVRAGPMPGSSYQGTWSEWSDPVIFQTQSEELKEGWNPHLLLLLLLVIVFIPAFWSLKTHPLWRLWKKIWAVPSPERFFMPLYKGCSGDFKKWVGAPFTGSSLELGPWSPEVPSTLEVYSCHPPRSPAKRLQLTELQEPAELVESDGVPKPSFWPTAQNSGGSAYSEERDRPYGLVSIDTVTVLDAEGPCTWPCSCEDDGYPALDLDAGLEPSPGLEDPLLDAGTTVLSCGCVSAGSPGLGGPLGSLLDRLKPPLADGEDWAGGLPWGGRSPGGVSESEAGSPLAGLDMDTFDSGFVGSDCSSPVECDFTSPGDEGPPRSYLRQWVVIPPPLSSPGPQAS

In the case of “Recombinant rat IL-21 (from UniProt A3QPB9 18-146) (ligand)”, the EC90, 24 hr STAT-Luciferase assay in Baf3/KZ134/huIL-21R cells is reported as 1.08 nM.
